Changes are numbered by the printed parent chain. Values joined by “and” are separate entries in the source; they are usually repeats but may differ in a detail not shown here. Equal entries are not always repeated. A value given as a limit tells only on which side of the number the result lay.

In assay [1] the target is IL-R1-Fc (a fusion of IL-1RI and Fc) (UniProt P14778). As to the kind of experiment: phage-displayed dAb: no trypsin overnight 37 C, biopanning on 1 nM IL-R1-Fc.
Assay [2] shares this target. In words: phage-displayed dAb: trypsin 100 µg/ml overnight 37 C, then biopanning on 1 nM IL-R1-Fc.
Assay [3] shares this target. As to the kind of experiment: phage-displayed dAb: no trypsin 1 hr room temp, biopanning on 1 nM IL-R1-Fc.
In assay [4] the target is IL-1R1 (UniProt P14778). In words: Receptor Binding Assay, inhibition of IL-1 binding to IL-R1 (column head says nM, cell says pM).
Sequence of IL-1R1 (P14778 18-332 limits assumed): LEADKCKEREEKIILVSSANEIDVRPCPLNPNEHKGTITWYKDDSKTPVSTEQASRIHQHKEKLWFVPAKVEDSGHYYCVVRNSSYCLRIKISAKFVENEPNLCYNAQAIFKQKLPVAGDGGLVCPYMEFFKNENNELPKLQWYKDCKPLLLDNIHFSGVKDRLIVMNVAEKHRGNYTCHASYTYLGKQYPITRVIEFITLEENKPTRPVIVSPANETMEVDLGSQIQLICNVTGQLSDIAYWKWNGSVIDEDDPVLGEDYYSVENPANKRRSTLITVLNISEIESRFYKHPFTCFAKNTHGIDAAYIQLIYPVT
Assay [5] deals with IL-R1-Fc (a fusion of IL-1RI and Fc) (UniProt P14778). In words: phage-displayed dAb: trypsin 100 µg/ml 1 hr room temp, then biopanning on 1 nM IL-R1-Fc.
For assay [6] the target is unchanged. As to the kind of experiment: phage-displayed dAb: trypsin 10 µg/ml 1 hr room temp, then biopanning on 1 nM IL-R1-Fc.
For assay [7] the target is unchanged. In words: phage-displayed dAb: trypsin 10 µg/ml overnight room temp, then biopanning on 1 nM IL-R1-Fc.
For assay [8] the target is unchanged. In words: phage-displayed dAb: trypsin 100 µg/ml overnight room temp, then biopanning on 1 nM IL-R1-Fc.
The target is the same in assay [9]. In words: phage-displayed dAb: trypsin 10 µg/ml overnight 37 C, then biopanning on 1 nM IL-R1-Fc.
Assay [10] shares this target. In words: phage-displayed dAb: no trypsin overnight room temp, biopanning on 1 nM IL-R1-Fc.
Assay [11] has as its target TNFR1 on MRC-5 cells (UniProt P19438). As to the kind of experiment: cell-based or functional assay.
Assay [12] addresses human VEGF (human vascular endothelial growth factor) (human) (UniProt P15692). In words: phage-displayed dAb, expt 2 (input 10^9): no trypsin 2 hr 37 C 250 rpm, capture on biotinylated rhVEGF.
Assay [13] has the same target. As to the kind of experiment: phage-displayed dAb, expt 1 (input 10^10): trypsin 10 µg/ml 1 hr room temp, then capture on 50 nM biotinylated rhVEGF.
For assay [14] the target is unchanged. In words: BIAcore kinetics.
For assay [15] the target is unchanged. As to the kind of experiment: monoclonal phage ELISA on biotinylated hVEGF (neutravidin plate) after 100 ug/ml trypsin 1 h 37 C. Background: An ELISA detects its analyte on a solid surface through an enzyme-linked reagent.
The target is the same in assay [16]. In words: phage-displayed dAb, expt 2 (input 10^9): trypsin 100 µg/ml 2 hr 37 C 250 rpm, then capture on biotinylated rhVEGF.
The target is the same in assay [17]. As to the kind of experiment: phage-displayed dAb, expt 1 (input 10^10): no trypsin (0 µg/ml) 1 hr room temp, capture on 50 nM biotinylated rhVEGF.
Assay [18] has the same target. As to the kind of experiment: receptor binding assay (inhibition of VEGF binding to VEGFR2).
For assay [19] the target is unchanged. As to the kind of experiment: phage-displayed dAb, expt 1 (input 10^10): trypsin 100 µg/ml 1 hr room temp, then capture on 50 nM biotinylated rhVEGF + streptavidin beads.
For assay [20] the target is unchanged. In words: phage-displayed dAb, expt 2 (input 10^9): trypsin 100 µg/ml 1 hr 37 C 250 rpm, then capture on biotinylated rhVEGF.

Sequence of TNFR1 on MRC-5 cells (P19438 30-455 limits assumed): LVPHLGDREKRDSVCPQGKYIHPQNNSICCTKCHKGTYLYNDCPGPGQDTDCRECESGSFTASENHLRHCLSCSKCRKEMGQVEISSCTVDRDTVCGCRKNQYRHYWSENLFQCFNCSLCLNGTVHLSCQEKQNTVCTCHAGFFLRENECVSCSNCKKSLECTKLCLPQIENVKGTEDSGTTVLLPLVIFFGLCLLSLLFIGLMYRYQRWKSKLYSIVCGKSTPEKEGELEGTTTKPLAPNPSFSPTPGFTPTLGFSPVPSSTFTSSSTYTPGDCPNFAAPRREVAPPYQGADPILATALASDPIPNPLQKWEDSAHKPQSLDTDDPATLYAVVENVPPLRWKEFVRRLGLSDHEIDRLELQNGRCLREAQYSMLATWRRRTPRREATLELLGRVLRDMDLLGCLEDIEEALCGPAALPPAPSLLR
Sequence of IL-R1-Fc (a fusion of IL-1RI and Fc) (P14778 18-336 limits assumed): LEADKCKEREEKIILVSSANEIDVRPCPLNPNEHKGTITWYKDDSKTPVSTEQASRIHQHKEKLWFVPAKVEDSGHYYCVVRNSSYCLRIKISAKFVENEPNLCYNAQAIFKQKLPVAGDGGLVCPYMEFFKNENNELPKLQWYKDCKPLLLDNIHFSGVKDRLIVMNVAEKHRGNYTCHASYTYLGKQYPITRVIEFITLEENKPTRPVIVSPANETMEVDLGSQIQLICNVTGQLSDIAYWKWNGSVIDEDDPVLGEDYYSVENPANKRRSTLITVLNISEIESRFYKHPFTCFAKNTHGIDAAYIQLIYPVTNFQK
Sequence of human VEGF (human vascular endothelial growth factor) (human) (P15692 other isoform, or with tags, fused parts or gaps limits assumed): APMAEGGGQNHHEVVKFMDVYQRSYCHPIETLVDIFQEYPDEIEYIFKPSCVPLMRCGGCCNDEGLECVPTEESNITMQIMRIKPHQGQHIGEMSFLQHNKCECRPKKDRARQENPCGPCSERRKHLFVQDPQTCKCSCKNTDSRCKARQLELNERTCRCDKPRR

B1: DOM4-130-54 (protein, from a related filing)
VL: DIQMTQSPSSLSASVGDRVTITCRASQDIYLNLDWYQQKPGKAPKLLINFGSELQSGVPSRFSGSGYGTDFTLTISSLQPEDFATYYCQPSFYFPYTFGQGTKVEIKR
For the molecule B1, the output phage titre came out at 7.2e+09 in assay [1]; 2.04e+06 in assay [2]; 6.6e+09 in [3]; 1.8e+10 in [5]; 7.2e+09 in assay [6]; 7.2e+09 in assay [7]. For the same molecule, the values for the output phage titre in assay [8], in [9] and in [10] were 2.16e+09, 3.84e+08 and 7.8e+09, respectively. This molecule returned an IC50 in assay [4] of 0.28 nM.

B2: DOM4-130-201 (protein, from a related filing)
VL: B1 VL with N49K, S77N, R108W
B2 gave an IC50 in assay [4] of 0.257 nM.

B3: DOM4-130-202 (protein, from a related filing)
VL: B1 VL with T22S, N49S, F83S, F94Y
With B3, the half-maximal inhibitory concentration (IC50) in [4] amounted to 0.254 nM.

B4: DOM1h-131-511 (protein)
VH: EVQLLESGGGLVQPGGSLRLSCAASGFTFAHETMVWVRQAPGKGLEWVSHIPPVGQDPFYADSVKGRFTISRDNSKNTLYLQMNSLRAEDTAVYYCALLPKRGPWFDYWGQGTLVTVSS
Turning to B4, in assay [11], the ND50, MRC-5 cell-based assay (IL-8 release) is 1.98 nM and 1.71 nM and 1.46 nM; the ND50, MRC-5 cell-based assay (IL-8 release); sample DOM1h-131-511 (230307CE) turned out to be 1.89 nM.

B5: DOM1h-131-204 (protein, from a related filing)
VH: B4 VH with L5S, V54D, K101N
Molecule B5 registered an ND50, MRC-5 cell-based assay (IL-8 release); sample DOM1h-131-204 (230307CE) in assay [11] of 1.89 nM.

B6: DOM1h-131-203 (protein, from a related filing)
VH: B4 VH with L5W, V54D, F106I
With B6, the ND50, MRC-5 cell-based assay (IL-8 release); sample DOM1h-131-203 (230307CE) in assay [11] was 2.28 nM.

B7: DOM15-10 (protein, from a related filing)
VL: DIQMTQSPSSLSASVGDRVTITCRASQWIGPELSWYQQKPGKAPKLLIYHTSILQSGVPSRFSGSGSGTDFTLTISSLQPEDFATYYCQQYMFQPRTFGQGTKVEIRR
With B7, the output phage titre in assay [12] is 3e+08; in [13] it was 2.4e+08; in assay [16] it was 10000; in assay [17], 7e+07; in assay [19], 1.1e+07; in [20], 100000. The molecule also registered a Kd in assay [14] of 23.6 nM. Besides, the OD450 in [15] is less than 0.404. In addition, in assay [18], the EC50 came out at 10.2 nM.

B8: DOM15-10-11 (protein, from a related filing)
VL: B7 VL with S34R, R96M, R108G
B8: the Kd in [14] stood at 14.6 nM. Moreover, the EC50 in assay [18] stood at 3.58 nM.

The term IC50 denotes the concentration at which inhibition is half-maximal. A low value points to greater potency in that assay. Usually Kd stands for the constant that tells how readily two partners part at equilibrium. A higher Kd goes with lower affinity. The term EC50 denotes the concentration at which the effect is half-maximal. Read a low EC50 as greater potency.
